{"source": "paper PMC4661536", "about": "“Structural delineation of stem-loop RNA binding by human TAF15 protein”", "settings_in_all_cases": "protein: recombinant; hairpin, 8 bp stem, 9 nt loop", "key": {"TAF15-RRM-RanBP2": {"biological_target": "TAF15-RRM-RanBP2 (Homo sapiens, UniProt Q92804 231-388)", "sequence (Q92804 231-388)": "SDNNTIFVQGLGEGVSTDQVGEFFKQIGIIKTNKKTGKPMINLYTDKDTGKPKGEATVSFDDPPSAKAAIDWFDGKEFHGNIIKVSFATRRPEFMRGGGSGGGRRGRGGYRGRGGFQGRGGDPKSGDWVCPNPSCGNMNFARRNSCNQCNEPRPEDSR", "experiment": "ITC; N = 0.8; 5 mM beta-mercaptoethanol; ITC: 10 mM HEPES pH 7.0, 20 mM Na2SO4 (+5 mM beta-mercaptoethanol for RRM-RanBP2 constructs), 298 K, 1 mM RNA into 100 uM protein. NMR: 20 mM Na phosphate pH 6.2, 25 mM NaCl, 5% D2O (RRM) or 25 mM Na2SO4, 5 mM beta-mercaptoethanol (TAF15-RRM-RanBP2), 298 K"}, "TAF15-RRM": {"biological_target": "TAF15-RRM (Homo sapiens, UniProt Q92804 231-323)", "sequence (Q92804 231-323)": "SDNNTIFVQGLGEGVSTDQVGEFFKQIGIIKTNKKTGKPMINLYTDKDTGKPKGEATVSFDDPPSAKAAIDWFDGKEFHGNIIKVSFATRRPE", "experiment": "ITC; N = 0.72; ITC: 10 mM HEPES pH 7.0, 20 mM Na2SO4 (+5 mM beta-mercaptoethanol for RRM-RanBP2 constructs), 298 K, 1 mM RNA into 100 uM protein. NMR: 20 mM Na phosphate pH 6.2, 25 mM NaCl, 5% D2O (RRM) or 25 mM Na2SO4, 5 mM beta-mercaptoethanol (TAF15-RRM-RanBP2), 298 K"}, "FUS-RRM [1]": {"biological_target": "T1, FUS-RRM (Homo sapiens, UniProt P35637 282-374)", "T1 sequence (P35637 282-374)": "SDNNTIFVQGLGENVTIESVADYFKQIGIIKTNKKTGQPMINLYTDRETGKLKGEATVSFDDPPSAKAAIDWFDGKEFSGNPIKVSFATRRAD", "experiment": "ITC; sequential site N1; ITC: 10 mM HEPES pH 7.0, 20 mM Na2SO4 (+5 mM beta-mercaptoethanol for RRM-RanBP2 constructs), 298 K, 1 mM RNA into 100 uM protein. NMR: 20 mM Na phosphate pH 6.2, 25 mM NaCl, 5% D2O (RRM) or 25 mM Na2SO4, 5 mM beta-mercaptoethanol (TAF15-RRM-RanBP2), 298 K"}, "FUS-RRM [2]": {"biological_target": "T1, FUS-RRM", "experiment": "ITC; sequential site N2; ITC: 10 mM HEPES pH 7.0, 20 mM Na2SO4 (+5 mM beta-mercaptoethanol for RRM-RanBP2 constructs), 298 K, 1 mM RNA into 100 uM protein. NMR: 20 mM Na phosphate pH 6.2, 25 mM NaCl, 5% D2O (RRM) or 25 mM Na2SO4, 5 mM beta-mercaptoethanol (TAF15-RRM-RanBP2), 298 K"}, "FUS-RRM-RanBP2": {"biological_target": "FUS-RRM-RanBP2 (Homo sapiens, UniProt P35637 282-454)", "sequence (P35637 282-454)": "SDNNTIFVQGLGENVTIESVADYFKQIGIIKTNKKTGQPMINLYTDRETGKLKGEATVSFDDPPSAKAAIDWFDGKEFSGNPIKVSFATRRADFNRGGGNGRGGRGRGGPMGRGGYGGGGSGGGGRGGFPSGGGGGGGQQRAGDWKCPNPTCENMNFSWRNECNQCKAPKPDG", "experiment": "ITC; N = 0.7; 5 mM beta-mercaptoethanol; ITC: 10 mM HEPES pH 7.0, 20 mM Na2SO4 (+5 mM beta-mercaptoethanol for RRM-RanBP2 constructs), 298 K, 1 mM RNA into 100 uM protein. NMR: 20 mM Na phosphate pH 6.2, 25 mM NaCl, 5% D2O (RRM) or 25 mM Na2SO4, 5 mM beta-mercaptoethanol (TAF15-RRM-RanBP2), 298 K"}, "FUS-RRM [3]": {"biological_target": "T1, FUS-RRM", "experiment": "ITC; sequential site N3; ITC: 10 mM HEPES pH 7.0, 20 mM Na2SO4 (+5 mM beta-mercaptoethanol for RRM-RanBP2 constructs), 298 K, 1 mM RNA into 100 uM protein. NMR: 20 mM Na phosphate pH 6.2, 25 mM NaCl, 5% D2O (RRM) or 25 mM Na2SO4, 5 mM beta-mercaptoethanol (TAF15-RRM-RanBP2), 298 K"}, "FUS-RRM [4]": {"biological_target": "T1, FUS-RRM", "experiment": "ITC; average over three sequential sites; ITC: 10 mM HEPES pH 7.0, 20 mM Na2SO4 (+5 mM beta-mercaptoethanol for RRM-RanBP2 constructs), 298 K, 1 mM RNA into 100 uM protein. NMR: 20 mM Na phosphate pH 6.2, 25 mM NaCl, 5% D2O (RRM) or 25 mM Na2SO4, 5 mM beta-mercaptoethanol (TAF15-RRM-RanBP2), 298 K"}}}
{"binder": "CGUAUCUUUAACUACUCAAGAUACG (structured_RNA)", "note": "[SON stem-loop RNA]", "values": [{"measurement": "Kd", "setting": "TAF15-RRM-RanBP2", "value": "6 ± 0.7", "unit": "µM"}, {"measurement": "Kd", "setting": "TAF15-RRM", "value": "10 ± 1", "unit": "µM"}, {"measurement": "Kd", "setting": "FUS-RRM [1]", "value": "10 ± 1", "unit": "µM"}, {"measurement": "Kd", "setting": "FUS-RRM [2]", "value": "13 ± 1.6", "unit": "µM"}, {"measurement": "Kd", "setting": "FUS-RRM-RanBP2", "value": "8 ± 0.7", "unit": "µM"}, {"measurement": "Kd", "setting": "FUS-RRM [3]", "value": "12 ± 0.3", "unit": "µM"}, {"measurement": "Kd", "setting": "FUS-RRM [4]", "value": 11, "unit": "µM"}]}
